Values of other authors as cited in article PMC5487681, “Identification of Antifungal H^+-ATPase Inhibitors with Effect on Plasma Membrane Potential” (Antimicrobial Agents and Chemotherapy, 2017).

Test system: C. albicans cells
Set-up: method as in PMID 27139463

B1: lactoferrin: immunoprotein that inhibits Pma1 (protein, UniProt P02788 20-710, looked up)
Lactotransferrin: GRRRSVQWCAVSQPEATKCFQWQRNMRKVRGPPVSCIKRDSPIQCIQAIAENRADAVTLDGGFIYEAGLAPYKLRPVAAEVYGTERQPRTHYYAVAVVKKGGSFQLNELQGLKSCHTGLRRTAGWNVPIGTLRPFLNWTGPPEPIEAAVARFFSASCVPGADKGQFPNLCRLCAGTGENKCAFSSQEPYFSYSGAFKCLRDGAGDVAFIRESTVFEDLSDEAERDEYELLCPDNTRKPVDKFKDCHLARVPSHAVVARSVNGKEDAIWNLLRQAQEKFGKDKSPKFQLFGSPSGQKDLLFKDSAIGFSRVPPRIDSGLYLGSGYFTAIQNLRKSEEEVAARRARVVWCAVGEQELRKCNQWSGLSEGSVTCSSASTTEDCIALVLKGEADAMSLDGGYVYTAGKCGLVPVLAENYKSQQSSDPDPNCVDRPVEGYLAVAVVRRSDTSLTWNSVKGKKSCHTAVDRTAGWNIPMGLLFNQTGSCKFDEYFSQSCAPGSDPRSNLCALCIGDEQGENKCVPNSNERYYGYTGAFRCLAENAGDVAFVKDVTVLQNTDGNNNEAWAKDLKLADFALLCLDGKRKPVTEARSCHLAMAPNHAVVSRMDKVERLKQVLLHQQAKFGRNGSDCPDKFCLFQSETKNLLFNDNTECLARLHGKTTYEKYLGPQYVAGITNLKKCSTSPLLEACEFLRK
Increase in iATP levels, C. albicans: > 600%
